Test results published in publication doi:10.1101/2023.07.15.549169.

How the values were obtained:
SMAD4 R100T;SMAD3 WT = assay: TR-FRET
SMAD4 WT;SMAD3 P124S = assay: TR-FRET

5'-FAM-SBE4
binding signal (% of WT PDI signal) (SMAD4 R100T;SMAD3 WT): 25 | binding signal (% of WT PDI signal) (SMAD4 WT;SMAD3 P124S): 25
